From patent publication US20240270846A1 (published 2024)

Biological target: T1, CD3 epsilon homodimer protein (UniProt P07766 23-126)
T1 construct: Construct of the homodimer protein is not described; also called CD3 (CD3 epsilon)
Experiment: SPR (Biacore T200), CD3 epsilon homodimer on CM4 chip, one-arm antibody as analyte; ratio to unaltered CE115HA000;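 further: surface plasmon resonance run at 25 °C with HBS-EP+ as running buffer, CD3 epsilon homodimer attached by amine coupling, antibody passed over as analyte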

T1 sequence (P07766 23-126): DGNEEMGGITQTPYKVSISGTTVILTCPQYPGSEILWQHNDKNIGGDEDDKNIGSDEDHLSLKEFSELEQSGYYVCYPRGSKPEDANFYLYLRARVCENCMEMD

| Binder | KD ratio (KD value of CE115HA000/KD value of the altered form) |
| --- | --- |
| CE115HA000 K64Q one-arm antibody (antibody, human IgG1, kappa, L234A L235A, N297A, name in Kabat numbering, one-arm antibody) heavy: QVQLVESGGGVVQPGRSLRLSCAASGFTFSNAWMHWVRQAPGKGLEWVAQIKAKSNNYATYYAESVQGRFTISRDDSKNSLYLQMNSLKTEDTAVYYCRYVHYGAYYGVDAWGQGTTVTVSSASTKGPSVFPLAPSSKSTSGGTAALGCLVKDYFPEPVTVSWNSGALTSGVHTFPAVLQSSGLYSLSSVVTVPSSSLGTQTYICNVNHKPSNTKVDKKVEPKSCDKTHTCPPCPAPEAAGGPSVFLFPPKPKDTLMISRTPEVTCVVVDVSHEDPEVKFNWYVDGVEVHNAKTKPREEQYASTYRVVSVLTVLHQDWLNGKEYKCKVSNKALPAPIEKTISKAKGQPREPQVYTLPPSRCELTKNQVSLSCAVKGFYPSDIAVEWESNGQPENNYKTTPPVLDSDGSFFLVSKLTVDKSRWQQGNVFSCSVMHEALHNHYTQKSLSLSPDYKDDDDK EPKSSDKTHTCPPCPAPELLGGPSVFLFPPKPKDTLMISRTPEVTCVVVDVSHEDPEVKFNWYVDGVEVHNAKTKPREEQYNSTYRVVSVLTVLHQDWLNGKEYKCKVSNKALPAPIEKTISKAKGQPREPQVCTLPPSRDELTKNQVSLWCLVKGFYPSDIAVEWESNGQPENNYKTTPPVLDSDGSFFLYSKLTVDKSRWQQGNVFSCSVMHEALHNRYTQKSLSLSP light: DIVMTQSPLSLPVTPGEPASISCRSSQSLVHSNRNTYLHWYQQKPGQAPRLLIYKVSNRFSGVPDRFSGSGSGTDFTLKISRVEAEDVGVYYCGQGTQVPYTFGQGTKLEIKRTVAAPSVFIFPPSDEQLKSGTASVVCLLNNFYPREAKVQWKVDNALQSGNSQESVTEQDSKDSTYSLSSTLTLSKADYEKHKVYACEVTHQGLSSPVTKSFNRGEC | 0.87 |
| CE115HA000 K75R one-arm antibody (antibody, human IgG1, kappa, L234A L235A, N297A, name in Kabat numbering, one-arm antibody) heavy: QVQLVESGGGVVQPGRSLRLSCAASGFTFSNAWMHWVRQAPGKGLEWVAQIKAKSNNYATYYAESVKGRFTISRDDSRNSLYLQMNSLKTEDTAVYYCRYVHYGAYYGVDAWGQGTTVTVSSASTKGPSVFPLAPSSKSTSGGTAALGCLVKDYFPEPVTVSWNSGALTSGVHTFPAVLQSSGLYSLSSVVTVPSSSLGTQTYICNVNHKPSNTKVDKKVEPKSCDKTHTCPPCPAPEAAGGPSVFLFPPKPKDTLMISRTPEVTCVVVDVSHEDPEVKFNWYVDGVEVHNAKTKPREEQYASTYRVVSVLTVLHQDWLNGKEYKCKVSNKALPAPIEKTISKAKGQPREPQVYTLPPSRCELTKNQVSLSCAVKGFYPSDIAVEWESNGQPENNYKTTPPVLDSDGSFFLVSKLTVDKSRWQQGNVFSCSVMHEALHNHYTQKSLSLSPDYKDDDDK EPKSSDKTHTCPPCPAPELLGGPSVFLFPPKPKDTLMISRTPEVTCVVVDVSHEDPEVKFNWYVDGVEVHNAKTKPREEQYNSTYRVVSVLTVLHQDWLNGKEYKCKVSNKALPAPIEKTISKAKGQPREPQVCTLPPSRDELTKNQVSLWCLVKGFYPSDIAVEWESNGQPENNYKTTPPVLDSDGSFFLYSKLTVDKSRWQQGNVFSCSVMHEALHNRYTQKSLSLSP light: DIVMTQSPLSLPVTPGEPASISCRSSQSLVHSNRNTYLHWYQQKPGQAPRLLIYKVSNRFSGVPDRFSGSGSGTDFTLKISRVEAEDVGVYYCGQGTQVPYTFGQGTKLEIKRTVAAPSVFIFPPSDEQLKSGTASVVCLLNNFYPREAKVQWKVDNALQSGNSQESVTEQDSKDSTYSLSSTLTLSKADYEKHKVYACEVTHQGLSSPVTKSFNRGEC | 0.88 |
| CE115HA000 K64S one-arm antibody (antibody, human IgG1, kappa, L234A L235A, N297A, name in Kabat numbering, one-arm antibody) heavy: QVQLVESGGGVVQPGRSLRLSCAASGFTFSNAWMHWVRQAPGKGLEWVAQIKAKSNNYATYYAESVSGRFTISRDDSKNSLYLQMNSLKTEDTAVYYCRYVHYGAYYGVDAWGQGTTVTVSSASTKGPSVFPLAPSSKSTSGGTAALGCLVKDYFPEPVTVSWNSGALTSGVHTFPAVLQSSGLYSLSSVVTVPSSSLGTQTYICNVNHKPSNTKVDKKVEPKSCDKTHTCPPCPAPEAAGGPSVFLFPPKPKDTLMISRTPEVTCVVVDVSHEDPEVKFNWYVDGVEVHNAKTKPREEQYASTYRVVSVLTVLHQDWLNGKEYKCKVSNKALPAPIEKTISKAKGQPREPQVYTLPPSRCELTKNQVSLSCAVKGFYPSDIAVEWESNGQPENNYKTTPPVLDSDGSFFLVSKLTVDKSRWQQGNVFSCSVMHEALHNHYTQKSLSLSPDYKDDDDK EPKSSDKTHTCPPCPAPELLGGPSVFLFPPKPKDTLMISRTPEVTCVVVDVSHEDPEVKFNWYVDGVEVHNAKTKPREEQYNSTYRVVSVLTVLHQDWLNGKEYKCKVSNKALPAPIEKTISKAKGQPREPQVCTLPPSRDELTKNQVSLWCLVKGFYPSDIAVEWESNGQPENNYKTTPPVLDSDGSFFLYSKLTVDKSRWQQGNVFSCSVMHEALHNRYTQKSLSLSP light: DIVMTQSPLSLPVTPGEPASISCRSSQSLVHSNRNTYLHWYQQKPGQAPRLLIYKVSNRFSGVPDRFSGSGSGTDFTLKISRVEAEDVGVYYCGQGTQVPYTFGQGTKLEIKRTVAAPSVFIFPPSDEQLKSGTASVVCLLNNFYPREAKVQWKVDNALQSGNSQESVTEQDSKDSTYSLSSTLTLSKADYEKHKVYACEVTHQGLSSPVTKSFNRGEC | 0.85 |
| CE115HA000 L78I one-arm antibody (antibody, human IgG1, kappa, L234A L235A, N297A, name in Kabat numbering, one-arm antibody) heavy: QVQLVESGGGVVQPGRSLRLSCAASGFTFSNAWMHWVRQAPGKGLEWVAQIKAKSNNYATYYAESVKGRFTISRDDSKNSIYLQMNSLKTEDTAVYYCRYVHYGAYYGVDAWGQGTTVTVSSASTKGPSVFPLAPSSKSTSGGTAALGCLVKDYFPEPVTVSWNSGALTSGVHTFPAVLQSSGLYSLSSVVTVPSSSLGTQTYICNVNHKPSNTKVDKKVEPKSCDKTHTCPPCPAPEAAGGPSVFLFPPKPKDTLMISRTPEVTCVVVDVSHEDPEVKFNWYVDGVEVHNAKTKPREEQYASTYRVVSVLTVLHQDWLNGKEYKCKVSNKALPAPIEKTISKAKGQPREPQVYTLPPSRCELTKNQVSLSCAVKGFYPSDIAVEWESNGQPENNYKTTPPVLDSDGSFFLVSKLTVDKSRWQQGNVFSCSVMHEALHNHYTQKSLSLSPDYKDDDDK EPKSSDKTHTCPPCPAPELLGGPSVFLFPPKPKDTLMISRTPEVTCVVVDVSHEDPEVKFNWYVDGVEVHNAKTKPREEQYNSTYRVVSVLTVLHQDWLNGKEYKCKVSNKALPAPIEKTISKAKGQPREPQVCTLPPSRDELTKNQVSLWCLVKGFYPSDIAVEWESNGQPENNYKTTPPVLDSDGSFFLYSKLTVDKSRWQQGNVFSCSVMHEALHNRYTQKSLSLSP light: DIVMTQSPLSLPVTPGEPASISCRSSQSLVHSNRNTYLHWYQQKPGQAPRLLIYKVSNRFSGVPDRFSGSGSGTDFTLKISRVEAEDVGVYYCGQGTQVPYTFGQGTKLEIKRTVAAPSVFIFPPSDEQLKSGTASVVCLLNNFYPREAKVQWKVDNALQSGNSQESVTEQDSKDSTYSLSSTLTLSKADYEKHKVYACEVTHQGLSSPVTKSFNRGEC | 1.08 |
| CE115HA000 K75T one-arm antibody (antibody, human IgG1, kappa, L234A L235A, N297A, name in Kabat numbering, one-arm antibody) heavy: QVQLVESGGGVVQPGRSLRLSCAASGFTFSNAWMHWVRQAPGKGLEWVAQIKAKSNNYATYYAESVKGRFTISRDDSTNSLYLQMNSLKTEDTAVYYCRYVHYGAYYGVDAWGQGTTVTVSSASTKGPSVFPLAPSSKSTSGGTAALGCLVKDYFPEPVTVSWNSGALTSGVHTFPAVLQSSGLYSLSSVVTVPSSSLGTQTYICNVNHKPSNTKVDKKVEPKSCDKTHTCPPCPAPEAAGGPSVFLFPPKPKDTLMISRTPEVTCVVVDVSHEDPEVKFNWYVDGVEVHNAKTKPREEQYASTYRVVSVLTVLHQDWLNGKEYKCKVSNKALPAPIEKTISKAKGQPREPQVYTLPPSRCELTKNQVSLSCAVKGFYPSDIAVEWESNGQPENNYKTTPPVLDSDGSFFLVSKLTVDKSRWQQGNVFSCSVMHEALHNHYTQKSLSLSPDYKDDDDK EPKSSDKTHTCPPCPAPELLGGPSVFLFPPKPKDTLMISRTPEVTCVVVDVSHEDPEVKFNWYVDGVEVHNAKTKPREEQYNSTYRVVSVLTVLHQDWLNGKEYKCKVSNKALPAPIEKTISKAKGQPREPQVCTLPPSRDELTKNQVSLWCLVKGFYPSDIAVEWESNGQPENNYKTTPPVLDSDGSFFLYSKLTVDKSRWQQGNVFSCSVMHEALHNRYTQKSLSLSP light: DIVMTQSPLSLPVTPGEPASISCRSSQSLVHSNRNTYLHWYQQKPGQAPRLLIYKVSNRFSGVPDRFSGSGSGTDFTLKISRVEAEDVGVYYCGQGTQVPYTFGQGTKLEIKRTVAAPSVFIFPPSDEQLKSGTASVVCLLNNFYPREAKVQWKVDNALQSGNSQESVTEQDSKDSTYSLSSTLTLSKADYEKHKVYACEVTHQGLSSPVTKSFNRGEC | 0.75 |
| CE115HA000 N76S one-arm antibody (antibody, human IgG1, kappa, L234A L235A, N297A, name in Kabat numbering, one-arm antibody) heavy: QVQLVESGGGVVQPGRSLRLSCAASGFTFSNAWMHWVRQAPGKGLEWVAQIKAKSNNYATYYAESVKGRFTISRDDSKSSLYLQMNSLKTEDTAVYYCRYVHYGAYYGVDAWGQGTTVTVSSASTKGPSVFPLAPSSKSTSGGTAALGCLVKDYFPEPVTVSWNSGALTSGVHTFPAVLQSSGLYSLSSVVTVPSSSLGTQTYICNVNHKPSNTKVDKKVEPKSCDKTHTCPPCPAPEAAGGPSVFLFPPKPKDTLMISRTPEVTCVVVDVSHEDPEVKFNWYVDGVEVHNAKTKPREEQYASTYRVVSVLTVLHQDWLNGKEYKCKVSNKALPAPIEKTISKAKGQPREPQVYTLPPSRCELTKNQVSLSCAVKGFYPSDIAVEWESNGQPENNYKTTPPVLDSDGSFFLVSKLTVDKSRWQQGNVFSCSVMHEALHNHYTQKSLSLSPDYKDDDDK EPKSSDKTHTCPPCPAPELLGGPSVFLFPPKPKDTLMISRTPEVTCVVVDVSHEDPEVKFNWYVDGVEVHNAKTKPREEQYNSTYRVVSVLTVLHQDWLNGKEYKCKVSNKALPAPIEKTISKAKGQPREPQVCTLPPSRDELTKNQVSLWCLVKGFYPSDIAVEWESNGQPENNYKTTPPVLDSDGSFFLYSKLTVDKSRWQQGNVFSCSVMHEALHNRYTQKSLSLSP light: DIVMTQSPLSLPVTPGEPASISCRSSQSLVHSNRNTYLHWYQQKPGQAPRLLIYKVSNRFSGVPDRFSGSGSGTDFTLKISRVEAEDVGVYYCGQGTQVPYTFGQGTKLEIKRTVAAPSVFIFPPSDEQLKSGTASVVCLLNNFYPREAKVQWKVDNALQSGNSQESVTEQDSKDSTYSLSSTLTLSKADYEKHKVYACEVTHQGLSSPVTKSFNRGEC | 0.84 |
